The nature of this data set: soluble on expression in E. coli; label from the status in PepcDB or PDB records.
Regarding “MAVHTDPFKKYLYKIGNRTSGSDKHIRKFKTFLTISAYSNILVISMIIDQLRIQKNIPDEEFDAIYPFEIRELSERHWTSVFVAKTAADFLCNQRPVKVLDIGSGAGKFCFVGAALHPSSQFHGIDIRENFIQLSNNLKEQYAVANVSFFQQDALEMDLTGYGGIYFFNSFQEKIDPTSVIDHNSKVSVEQYIQYTNHIFNELNKVPAGTKLVTYYSEDFCVPGSFRLLATHFNGELKFYLKEMEPDESDEQLNQQDISEHIDRHTFLSE”, the “soluble on expression in E. coli” value is listed as “not soluble”.
Turning to “MICTPKVGLNNQLTKVQFFMTKYNFLFKQQVIEFYLQNDKNSSLTRRHFQLAETTLERWINQFNHSGINGLALLGKKRNYSPEFKLNVIQAVKNGKFSAEAACLHFGIANSGVVSQWLQAFEKQGINGLIPKPKGRPTMKLQYPKMPPKPKTREEELELENLRLRAENAILKKLQELNQQKMQKKPLSLEHHHHHH”, the “soluble on expression in E. coli” value is “not soluble”.
For the sequence “MGSDKIHHHHHHMSADGSEYGRYFEQLQKVNLTVRLGDTGSFDGTAAITSLKGSLAWLELFGAEQPPPNTLSEGAEVSVSVWTGGALCRCDGRVETLRDDRQFAIRLVGRVRELQRREYFRLDVSIPFSYELLAGVSPEEAQERWLHERMDSWRSPAMVQEGSSWRVVDWNGRDIPSARANLSGGGMRFRVSEDVASGTLMLVSLFLPHPQPRVICVLAEALRCAEITLTLQAGTHYSLSMRFITISDKDREAVISYLFSEQRRELMSKSDRFQIGGRR”, the “soluble on expression in E. coli” value is recorded as “not soluble”.
Then “FVNVGERTNVTGSKMFARLVREEKYDEALAVARQQVENGAQIIDVNMDEAMLDSVACMHRFLNLIASEPDIARVPVMIDSSKWEVIETGLKCVQGKAVVNSISMKEGEEPFRHHARLCRRYGAAMVVMAFDEQGQADSLERRKEICGRAYRILVEEEGFPPEDIIFDPNVFAVATGIDEHNHYAVDFIEGARWIRANLPHARISGGISNVSFSFRGNEPMREAIHTVFLYYAIEAGLTMGIVNAGQLGVYADLAPHLRDLVEDVILDRPE”, with “not soluble”; and “MKLNLEREKKILLKNRNRYRYFHKPGVSIIVCTNKMKYIENIFSNYSRINYPIKEMIIILNKMNLNISKYKKVAERFSNVRIIKKPENVTLGKCLNYGVDISKYNYIFKMDDDDYYGENYICDEITSLIYTNSDIVGKASFFVYYEGYGRLEIMYPEGNEKYIPNVAGSTLLIKKSVFNKVRFRNISLAEDACFIEDCCKQGIKIYSCNRFNYVYFKHRSLNDHTWKISSEDLMKVTKKVGKYKNYLPIVTILEHHHHHH”, with “not soluble”.
Regarding “MSQIKNYMEEVVFSLMKDVLSDINVCSCEKCRMDIAAIALNNLPPKYIVTDKGELYSKVDSLKQQFEVDVISALAKAAVIVKRNPRHE”, the “soluble on expression in E. coli” value was “not soluble”.
Regarding “MLAPWQPLLEWWFGWGTSAQAVADEKSTLWFGKHYDADAHALFGDLVEHALAGGLEEWQQTPQGWLGLLILLDQLPRMIYRDTPRAFEGDRRAQVVAMQGLQKGWDYQLLPIQRVFVLLVLEHAEVLDWQNLCVERYRMLLDEQPEANRRLFEGFLDYAEQHQRVIARFGRFPHRNLVLERPSTSEEMDFLLEPGSRF”, the “soluble on expression in E. coli” value is given as “not soluble”.
Then “MGSDKIHHHHHHMVEQLKPRYSSVWINKIAEVPQDAWDALALPLKTPFLEWDWLNNLETSHSATAKTGWLPNHLTLWRDRTLIAVAPLYIKGHSYGEFVFDHQWAELAERIGVQYYPKLLGMTPFTPAEGYRFLIADGEDEEEITAMMVHEIDSFCVKHNISSCHFLYVDPQWQPVLEKQGFTAWLHHSFIWENSGFQNFDDYLTVFNANQRRNIKRERKAVEKAGLQLQAVTGDAIPKSLFPLMYQFYADTCDKFGWWGSKYLTKQFFEQLHHNYRHRVVFFPAYHEQDPRQPLGMSFCLFKDDRLYGRYWGSFQEIDCLHFDACYYAPIEWAIANGIQSFDPGAGGRHKKRRGFPAAPNYSLHRFYNSRLGQILRPYINEVNQLEEQEIAAINAELPFSQK”, with “not soluble”; and “MAHHHHHHMMSPFPPLPVYLSGLLTLHVPTRCLHFLVLTPMKTRVGLHRCCASYLRLLSQDRLQLHNPIEFIGALHFFTSLCSPLGVADFLRMEDPAAQEVVVTPWTVEGDVNYDKLIKNFGCQAIDDKLLERMERLTGKKPHHFLRRGIFFSHRDLNLILDAYEKGQPFYLYTGRGPSSESMHVGHLIPFMFTKWLQDTFHVPLVIQLTDDEKFFFKDLTMEEIDKMTTENLKDIIAFGFDPKLTFIFRDFEYVGQMYRIVARIEKAYTASQVRGCFGFKMEDNCGRWMFPAIQAAPSFSAAFPHIFPLQKGNVFCMIPQAIDQDPYFRLTRDVAPRMGYLKPAVIHSKFFPGLSGSKGKMSSSTGAAVFLTDTPKMIKDKINKHAFSGGGADKKEQLLLGGNTNVDVPVQWLRFFLEDDEELKRLQKDYMLGRIMTGDVKKVLIRQITSIVTAHQESRKKVTEADVELFTAVRVMGPAKEEAESRK”, with “not soluble”.
As for “MLLGMSLEELTTVALRMGMPRFAGKQLAEWIYVRRATDFAEMTNISQANRQKLAEIYDLGRYPWSDVQCSVDGTKKYLFPVGEGRFVESVLIPEGDRATLCISSQVGCKMDCLFCMTGKQGWNGNLSAAEILNQIFSVDEAAELTNLVYMGMGEPLDNTDEVLRSIEALTEPWGMGWSPKRITVSTIGAKGLERFLAESRCHLAVSLHSPFPEERRKLMPGEKAFPIMQTLDRIRAYDFSGQRRVSFEYIVFDGLNDDMRHADELAAILRGIPCRINLIRFHKIPAVSLRSSDTARMEAFRKRMESHGFTCTIRASRGEDIFAACGMLSTSKAESSEEKSS”, the “soluble on expression in E. coli” value is recorded as “not soluble”.
As to “MAHHHHHHMGSSSPSSLLPPALMPCHVWEGREEGISVETARGRREVEINRKKGHMASPKEMYEKECRALGVPPNSGLLRMLPESTVNLSGLSVMHLGHNFLGDRGVVPFVHIIAHASSLHTLNLRENGIGNEGVRVLCRGLRRLPALKVLELSGNPFTFLAARQLVYLCEDSPVLSVIGVEGTLMTEKLKTSIIHRIREAVKRREARKQLSQQPSADRDDGQKDMAEGVAEAEGKVVERAAPIAAEEATTLRSRNVGGPCLRKSVLSLVSQDSMSTAMSSKFKKNEPDDQAGPRGANEFASPCSPLPPPPPDDAHQSPLWFDASEDEEQKEEKKEISVATAENDEKMMIDTAGSISFLVDVEELRANSVERELRAQEEMLPWQVSRADDPLRSLHSTHTRIASHRTTEKRSESGTAISFPSSFTLELRTAEAEGKLAECTKSTKGDDFLDLLFGSEVD”, the “soluble on expression in E. coli” value is recorded as “not soluble”.
For the sequence “MKKTQRKEIENVTNITGVRQIELWRRDDLQHPRLDEVAEEVPVALVYNGISHVVMMASPKDLEYFALGFSLSEGIIESPRDIFGMDVVPSCNGLEVQIELSSRRFMGLKERRRALAGRTGCGVCGVEQLNDIGKPVQPLPFTQTFDLNKLDDALRHLNDFQPVGRLTGCTHAAAWMLPSGELVGGHEDVGRHVALDKLLGRRSQEGESWQQGAVLVSSRASYEMVQKSAMCGVEILFAVSAATTLAVEVAERCNLTLVGFCKPGRATVYTHPQRLSN”, the “soluble on expression in E. coli” value was “not soluble”.
Then “VTEVEQKLQIVHQTLSMLDSHGFENILQEMLQSITLKTGELLGADRTTIFLLDEEKQELWSIVAAGEGDRSLEIRIPADKGIAGEVATFKQVVNIPFDFYHDPRSIFAQKQEKITGYRTYTMLALPLLSEQGRLVAVVQLLNKLKPYSPPDALLAERIDNQGFTSADEQLFQEFAPSIRLILESSRSFYIATQKQRAAAAMMKAVKSLSQSSLDLEDTLKRVMDEAKELMNADRSTLWLIDRDRHELWTKITQDNGSTKELRVPIGKGFAGIVAASGQKLNIPFDLYDHPDSATAKQIDQQNGYRTCSLLCMPVFNGDQELIGVTQLVNKKKTGEFPPYNPETWPIAPECFQASFDRNDEEFMEAFNIQAGVALQNAQLFATVKQQEQGSRSHHHHHH”, with “soluble”.
Turning to “GSFLPNSEQQKSVDIVFSSPQDLTVSLIPVSGLKAGKNAPSAKIAKLVVNSTTLKEFGVRGISNNVVDSTGTAWRVAGKNTGKEIGVGLSSDSLRRSDSTEKWNGVNWMTFNSNDTLDIVLTGPAQNVTADTYPITLDVVGYQP”, the “soluble on expression in E. coli” value is on record as “soluble”.
Then “MGSDKIHHHHHHAQQQELPVPKPHQLKWHEAEMGAVFHYDLHVFDGIRYGQGNNRINPIEDYNIFNPTELNTDQWVQAAKAAGCKFAVLTATHETGFGLWQSDVNPYCLKAVKWRDGKGDIVRDFVNSCRKYGLQPGIYIGIRWNSLLGIHNFKAEGEGAFARNRQAWYKRLCEKMVTELCTRYGDLYMIWFDGGADDPRADGPDVEPIVNKYQPNCLFYHNIDRADFRWGGSETGTVEYPCWSTFPVPCSHHKRIESSIDQLELLKHGDKNGRYWVPAMADTPLRGANGRHEWFWEPDDENNIYPLNTLMDKYEKSVGRNATLILGLTPDPTGLIPAGDAQRLKEMGDEINRRFSSPIARISGQKKSLTLKLGKEQSVNYCIIQENIKNGERIRQYQIEAKVNGKWQTVCKGESVGHKRIEKFEPVEATALRLTVSESIALPDIINFSAYSVK”, with “not soluble”; and “MKAVSPVRPSGRKAPSGCGGGELALRCLAEHGHSLGGSAAAAAAAAAARCKAAEAAADEPALCLQCDMNDCYSRLRRLVPTIPPNKKVSKVEILQHVIDYILDLQLALETHPALLRQPPPPAPPHHPAGTCPAAPPRTPLTALNTDPAGAVNKQGDSILCR”, with “soluble”; and “STERRRDELSEEINNLREKVMKQSEENNNLQSQVQKLTEENTTLREQVEPTPEDEDDDIELRGAAAAAAPPPPIEEECPEDLPEKFDGNPDMLAPFMAQCQIFMEKSTRDFSVDRVRVCFVTSMMTGRAARWASAKLERSHYLMHNYPAFMMEMKHVFEDPQRREVAKRKIRRLRQGMGSVIDYSNAFQMIAQDLDWNEPALIDQYHEGLSDHIQEELSHLEVAKSLSALIGQCIHIERRLARAAAARKPRSPPRALVLPHIASHHQVDPTEPVGGARMRLTQEEKERRRKLNLCLYCGTGGHYADNCPAKASKSSPAGNSPAPL”, with “soluble”.
For “STSTSGLTARISQTLFTSNSFVEEVASILQHWDTGLEASKRRIQDAKEKNSTVLDLQQLELSNEIFNELWPSIREIRNLKYLNLFLNRLTELPSDFGALSTLETLNLACNPLQSVPDSFSDLAMLRELDLGFTSTLCTVPEIFEKMTQLKVLYAGNNRLEKLPESVISLQCLEELHLYGNALNALPENIGNLKSLRLLNVGRNNLSSLPNSIGSLSSLEVLYLYENDLSSLPRSMKDLSKLRVLGLDGNPSLSSLPEHIKEPNAKAVAAYYAEME”, the “soluble on expression in E. coli” value is listed as “soluble”.
As for “MSLNGLNSECHFYQTDGDIVVRCAQINDAERLSQYFVDNRSHLIEWEPRREAEFFTESGWLQRLIKLNELHKMKLGYYLLILDAQNDAMLGTISFSNIIRFPFHACNVGYSLAYEAQGKGIMTRALTMACQYMFSEHNMHRIMASYIPHNKRSENVLKRVGFVLEGHAKDYLLINGKWEDHNLTSLINPNWKEEGHHHHHH”, the “soluble on expression in E. coli” value was “soluble”.
“ALEGTEFARSEGASALASVNPLKTTVEEALSRGWSVKSGTGTEDATKKEVPLGVAADANKLGTIALKPDPADGTADITLTFTMGGAGPKNKGKIITLTRTAADGLWKCTSDQDEQFIPKGCSR”: the “soluble on expression in E. coli” value is “soluble”.
As for “SNAMNYFELFGLPIQFELDGSLLSSQFRALQKRFHPDNFATASERDRLMAVQQAAQINDAYQTLKDPLRRAEYLLSLQGIEMNAEQQTLQDPMFLMEQMELREELESVTACADPEAALVAFDTKVTAMQRHYLAQLQGQLAQSEWLAAADQIRKLKFIAKLKNEVERVEDQLLG”, the “soluble on expression in E. coli” value was “soluble”.

The values are drawn from the DeepSol protein solubility set.
